Assay: yeast display, Sf9 membrane polyspecificity reagent, FACS + sequencing; frameworks hold sequencing errors
In short: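 In a synthetic yeast display library (Saccharomyces cerevisiae BJ5465), nanobody expression was induced with galactose for 36–48 hours. FACS gates were set low and high (top ~1%) using anti-HA fluorescence for expression and streptavidin fluorescence for binding of the Sf9 membrane reagent. Each polyreactivity label is drawn from the gate of origin.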

Sequence | polyreactivity (PSR sort gate)
QVQLVESGGGLVQAGGSLRLSCAASGFIFPVNAMGWYRQAPGKERELVAAITSSGGDTYYADSVKGRFTISRDNAKNTVYLQMNSLKPEDTAVYYCAAEYTQEQEDYDYWGQGTQVTVSS | low polyreactivity
QVQLVESGGGLVQAGGSLRLSCAASGFIFTYYTMGWYRPAPGKERELVAAISRTGSTNYADSVKGRFTISRDNAKNTVYLQMNSLKPEDTAVYFCNARYRGWLTLDGGYGYWGQGTQVTVSS | low polyreactivity
QVQLVESGGGLVQAGGSLSLSCAASGIFKYYMGWYRQAPGKERELVAGITKRGGSTYYADSVKGRFTISRDNAKNTVYLQKNSLKPEDTAVYYCNAVGPKRYDYWGQGTQVTVSS | high polyreactivity
QVQLVESGGGLVQAGGSLRLSCAASGYTFGEYAMGWYRQAPGKERELVATISLSDGSTNYADSVKGRFTISRDNAKNTVYLQMNSLKPEDTAVYYCATETQQALYGSVLKYNYWGQGTQVTVSS | low polyreactivity
QVQLVESGGGLVQAGGSLRLSCAASGFIFYRYAMGWYRQAPGKERELVAAISRSGGSTYYADSVKGRFTISRDNAKNTVYLQMNSLKPEDTAVYYCAADRGSLAPGNDYWGQGNQVTVSS | high polyreactivity
QVQLVESGGGLVQAGGSLRLSFAASGYIFYYNAMGWYRQAPGKERELVAAISRGGNTYYADSVKGRFTISRDNAKNTVYLQMNSLKPEDNAVYYFNARPPNKRYKYGYWGQGTQVTVSS | high polyreactivity
QVQLVESGGGLVQAGGSLRLSCAASGSIFHLYAMGWYRQAPGKEREFVAAISSSGGRTYYADSVKGRFTISRDNAKNTVYLQMNSLKPEDTAVYYCATAEQYGTKLRQVSYQYDYWGHGTQVTVSS | low polyreactivity
QVQLVESGGGLVQAGGSLRLSCAASGFTFGANVMGWYRQAPGKERELVAGITWSGDSTYYADSVKGRFTISRDNAKNTVYLQMNSLKPDDTAVYYCAADVYDGEYILDYDYWGQGTQVTVSS | low polyreactivity
QVQLVESGGGLVQAGGSLRLSCAASGSTFLHYAMGWYRQAPGKERELVAAISFSGVRTYYADSVKGRFTISRDNAKNTVYLQMNSLKPEDTAVYYCAADGHHADYDYWGQGTQVTVSS | low polyreactivity
QVQLVESGGGLVQAGGSLRLSCAASGRIFYDYAMGWYRQAPGKEWELVAAISGSGGSTYYADSVKGRFTISRDNAKNTVYLQMNSLKPEDTAVYYCNRYTTRYYPGGDYWGQGTQVTVSS | high polyreactivity
QVQLVESGGGLVQAGGSLRLSCAASGRIFGVYAMGWYREAPGKEREVVAAITYRGASTYADSVKGRFTISRVNAKKTVYLQMNSLKPEDTAVYYCATYPQYYFRYDYWGQGTQVTVSS | high polyreactivity
QVQLVESGGGLVQAGGSLRLSCAASGRIFSDYAMGWYIQAPGKERELVAAISWGGGRTYYADSVKGRFTISRDNAKNTVYLQMNSLKPEDTAVYYCNRGTVNSWARGYWGQGTQVTVSS | high polyreactivity
QVQLVESGGGLVQAGGSLRLSCASSGSTLEVNAMGWYRQAPGKERELVAAITSGCSTNYADSVKGRFTISRDNAKNTVYLQMNSLKPEDTAVYYCNALAYYGMDYWGQGTQVTVSS | low polyreactivity
QVQLVESGGGLVQAGGRLRLSCAASGSIFSRNAMGWDRQAPGQERELVAAITRSGGRTYYADSVKGRCTLSRDNAKTTVYLQMNSLKPEDTAVYYCNALASQEYDYWGQGTQVTVSS | high polyreactivity
QVQLVESGGGLVQAGGSLRLSCAASGSTFGRYVMGWYRPAPGKERELVAAISKNAGSTYYADSVKGRFTISRDNAKNTVYLQMNSLKPEDTAVYYCNAQSFREYGYWGQGTQVTVSS | high polyreactivity
QVQLVESGGGLVQAGGSLRLSCAASGLTFYHYAMGSYRQAPGKERELVAAITTIGGSTNYADSVKGRFTISRDNAKNTVYLQMNSLKPADNAVYYCAKKLTDAQASSHYDYWGQGTQVTVSS | low polyreactivity

Sequence | polyreactivity (PSR sort gate)
QVKIVESGGGLVQAGGSLRLSCAASGSTYYYYSMGWYRQAPGKERELVAAITGSGTSTYYADSVKGRFTISRDNAKNTVYLQMNSLKPEYTAVYYCAAEYPWYYYIDVSYTDYGYWGQGTQVTVSS | high polyreactivity
QVQLVESGGGLVQAGGSLRLSCAASGRIFVDYDMGWYRPAPGKERELVATISSGGSTNYADSVKGRFTISRDNAKNTVYLQMNSLKPEDTAVYYCAASSYSTSYIRGDYWGQGTQVTVSS | low polyreactivity
QVQLVESGGGLVQAGGSLRLSCAASGYTFNYYAMGWYRQAPGKERELVAAIRSTGSTNYADSVKGRFTISRDNAKNTVYLQMKSLKPEDTAVYYCAAKIRKDYSIQGYDYWGQGSQVTVSS | high polyreactivity
QVQLVESGGGLVQAGGSLRLSCAATGSIFWVNGMGWYRQAPGKERELVAAITWSGGSTYYADSVKGRFTISRDNAKNTVYLQMNSLKPEDTAVYYCADYGQYYLWDGYGYWGQGTQVTVSS | low polyreactivity
QDQLVESGGGLVQAGGSLRLSCAASGLNFVRYAMGWYRQAPGKERELVATITWSGGTYYADSVKGRFTISRDNAKNTVYLQMNSLKPEDTAVSYCAADTPTPGLFYWFYPHRGYWGQGTQVTVSS | low polyreactivity
QVQLVESGGGLVQAGGSLRLSCAASGFIFFYNAMGWYRQAPGKERELVADISSGGRTYYADSVKGRFTISRDNAKNTVYLQMNSLKPEDTAVYYCAAQSRYWVVRMDYWGQGTQVTVSS | high polyreactivity
QVQLVESGGGLVQAGGSLRLSSAASGSIFWPNTMGWYRPAPGKERELVAGISFGGGSTYYADSVKGRFTISRDNAKNTVYLQMNRLKPEDTAVYYCNGDDPGYAGPWYWFKYDYWGQGTQVTVSS | low polyreactivity
QVQLVESGGGLVQAGGSLRLSCAPSGSTFVYYAMGWYRPAPGKERELVAAINRSGTRTYYADSVKGRFSISRDNAKNTVYLQMNSLKPEDTAVYYCDKAVQGKYGYWGQGTQVTVSS | high polyreactivity
QVQLVDSGGGLVQAGGSLRLICAASGRTFYYYAMGWYRQAPGKERELVAGISSGVSTTYADSVKGRFTISRDNAKNTVYLQLNSLKPEDTAFYYCAARWRPNRAYIGYDYWGQGTQVTVSS | low polyreactivity
QVQLVETGGGLVQAGGSLRLSCAASGSIFGAYAMGWYRQAPGKERELVAAITWTAGSTFYADSVKGRFTISRDNAKNTVYLQMNSLKPEDTAVYYCAAEYYTETQWSRYYRYYYWGQGTQVTVSS | low polyreactivity
QVQLVESGGGLVQAGGSLRLSCAASGFTFSHYAKGWYRQAPGKDRELVAAITASGGNTYYADSVKGRFTISRDNAKNTVYLQMNSLKPEDTAVYYCNAVSLKFTRKYEYWGQGTQVTVSS | high polyreactivity
QVQLVESGGGLVQAGGSLRLSCAASGRIFASNAMGWYRQAPGKERELVAGISRNGGSTFYADSVKGRFTISRDNAKNTVYLQMNSLKPEDTAVYYCARYYTHSGGYRDRIYYYWGQGTQVTVSS | low polyreactivity
HEQRVESCGGLVQARCSLRLSCAASGGTFRYNTMGWYRQAPGKERDLVADISSDGRTYYADSVKGRFTISRDNAKTSVYLQMNSLKPEDTAVDYCAVDRFTPDVYEYGYWGQGTQVTVSS | high polyreactivity
QVQLVESGGGLVQAGGSLRLSCAASGITFNPYVMGWYRQAPGTERELVAVITSGGSTNYADSVKGRFTISRDNAKNTVYLQMNSLKPEDTAVYYCNVDRRPYYVWRVTYDYWGQGTQVTVSS | low polyreactivity
QVQLVESGGGLVQAGGSLRLSCAASGSIFYNAMGGYRQAPGKERELVAGISSGTSTYYADSVKGRFTISRDNAKNTVYLLMNSLKPEDTEVYYCATRWSYRYGYWGQGTQVTVSS | high polyreactivity
QVQLVESGGGLVQAGGSLRLSCASSGLTFHFYTMGWYRQAPGKERELVASITSGGITYYADSVKGRFTISRDNAKNTVYLQMNSLKPEDTAVYYCAATYQFIYTDFDYWGQGTQVTVSS | high polyreactivity

Source: the nanobody polyreactivity screen of Harvey et al. (2022)
